Results taken from patent US20150111814A1.

Molecular target: HIV-1 BaL envelope protein spike (Env) on virions (HIV-1 BaL strain)
Assay: cell-based or functional assay

Substance	IC50, p24 leakage from fully infectious HIV-1 BaL (ELISA)
DAVEI 8 (Dual Acting Virucidal Entry Inhibitor; cyanovirin-N-(Gly4Ser)8-His6-MPER fusion)	395 nM
DAVEI 4 (Dual Acting Virucidal Entry Inhibitor; cyanovirin-N-(Gly4Ser)4-His6-MPER fusion)	200 nM
